Laboratory results as given in the supplement of paper PMC10567573.

B1: C9orf25 (parent)
chain: LARKGSLKNGSMGSPVNQQPKKNN
B2: ZNF263 (parent)
chain: VPGTQVGQGGKLWDPSVQSCKEGL
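Also: lentivirally expressed fusions sorted by FACS into six bins by GFP to DsRed ratio, PSI derived from sequencing read proportions per bin multiplied by bin number.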

Variants of: B1
Experiment: protein stability index of a GFP-peptide fusion (GPS, HEK-293T) (PSI 1-6); higher = more stable
Conditions: c terminus: a fixed tail appended
Variant LARKGSLKNGSMGSPVNQQPKKQN [N23Q] has a protein stability index of 4.64. For LARKGSLKNGSMGSPVNQQPKKRN [N23R], the protein stability index was 4.18. In the case of LARKGSLKNGSMGSPVNQQPKKSN [N23S], the protein stability index is reported as 4.58. Variant LARKGSLKNGSMGSPVNQQPKKTN [N23T] has a protein stability index of 4.89. With LARKGSLKNGSMGSPVNQQPKKVN [N23V] the protein stability index was 4.59. Variant LARKGSLKNGSMGSPVNQQPKKWN [N23W] has a protein stability index of 4. Work on LARKGSLKNGSMGSPVNQQPKKYN [N23Y] yielded a protein stability index of 3.82. With LARKGSLKNGSMGSPVNQQPKKNA [N24A] the protein stability index was 4.52. With LARKGSLKNGSMGSPVNQQPKKNC [N24C] the protein stability index was 4.69. Variant LARKGSLKNGSMGSPVNQQPKKND [N24D] has a protein stability index of 4.85. With LARKGSLKNGSMGSPVNQQPKKNE [N24E] the protein stability index was 4.14. Variant LARKGSLKNGSMGSPVNQQPKKNF [N24F] has a protein stability index of 3.96. Variant LARKGSLKNGSMGSPVNQQPKKNG [N24G] has a protein stability index of 4.76. Variant LARKGSLKNGSMGSPVNQQPKKNH [N24H] has a protein stability index of 4.79. With LARKGSLKNGSMGSPVNQQPKKNI [N24I] the protein stability index was 3.82. For LARKGSLKNGSMGSPVNQQPKKNK [N24K], the protein stability index was 5.08. In the case of LARKGSLKNGSMGSPVNQQPKKNL [N24L], the protein stability index is reported as 4.76. For LARKGSLKNGSMGSPVNQQPKKNM [N24M], the protein stability index was 4.02. In the case of LARKGSLKNGSMGSPVNQQPKKNP [N24P], the protein stability index is reported as 4.48. Work on LARKGSLKNGSMGSPVNQQPKKNQ [N24Q] yielded a protein stability index of 4.85. Variant LARKGSLKNGSMGSPVNQQPKKNR [N24R] has a protein stability index of 4.42. For LARKGSLKNGSMGSPVNQQPKKNS [N24S], the protein stability index was 4.7. With LARKGSLKNGSMGSPVNQQPKKNT [N24T] the protein stability index was 4.83. Work on LARKGSLKNGSMGSPVNQQPKKNV [N24V] yielded a protein stability index of 3.85. In the case of LARKGSLKNGSMGSPVNQQPKKNW [N24W], the protein stability index is reported as 3.88. Variant LARKGSLKNGSMGSPVNQQPKKNY [N24Y] has a protein stability index of 3.78.

Variants of: B2
Experiment: as above
Conditions: c terminus: a fixed tail appended
Work on APGTQVGQGGKLWDPSVQSCKEGL [V1A] yielded a protein stability index of 4.56. CPGTQVGQGGKLWDPSVQSCKEGL [V1C] showed a protein stability index of 4.28. With DPGTQVGQGGKLWDPSVQSCKEGL [V1D] the protein stability index was 4.85. For EPGTQVGQGGKLWDPSVQSCKEGL [V1E], the protein stability index was 5.15. For FPGTQVGQGGKLWDPSVQSCKEGL [V1F], the protein stability index was 1.64. GPGTQVGQGGKLWDPSVQSCKEGL [V1G] gave a protein stability index of 4.05. HPGTQVGQGGKLWDPSVQSCKEGL [V1H] gave a protein stability index of 4.17. In the case of IPGTQVGQGGKLWDPSVQSCKEGL [V1I], the protein stability index is reported as 4.31. KPGTQVGQGGKLWDPSVQSCKEGL [V1K] showed a protein stability index of 4.36. LPGTQVGQGGKLWDPSVQSCKEGL [V1L] gave a protein stability index of 3.53. For MPGTQVGQGGKLWDPSVQSCKEGL [V1M], the protein stability index was 4.69. NPGTQVGQGGKLWDPSVQSCKEGL [V1N] gave a protein stability index of 4.53. PPGTQVGQGGKLWDPSVQSCKEGL [V1P] showed a protein stability index of 4.78. QPGTQVGQGGKLWDPSVQSCKEGL [V1Q] gave a protein stability index of 4.51. Variant RPGTQVGQGGKLWDPSVQSCKEGL [V1R] has a protein stability index of 4.08. Variant SPGTQVGQGGKLWDPSVQSCKEGL [V1S] has a protein stability index of 4.19. For TPGTQVGQGGKLWDPSVQSCKEGL [V1T], the protein stability index was 4.63. Variant WPGTQVGQGGKLWDPSVQSCKEGL [V1W] has a protein stability index of 4.23. For YPGTQVGQGGKLWDPSVQSCKEGL [V1Y], the protein stability index was 1.85. In the case of VAGTQVGQGGKLWDPSVQSCKEGL [P2A], the protein stability index is reported as 4.17. For VCGTQVGQGGKLWDPSVQSCKEGL [P2C], the protein stability index was 3.61. VDGTQVGQGGKLWDPSVQSCKEGL [P2D] gave a protein stability index of 4.12. Work on VEGTQVGQGGKLWDPSVQSCKEGL [P2E] yielded a protein stability index of 4.25. Work on VFGTQVGQGGKLWDPSVQSCKEGL [P2F] yielded a protein stability index of 3.99. In the case of VGGTQVGQGGKLWDPSVQSCKEGL [P2G], the protein stability index is reported as 4.28. In the case of VHGTQVGQGGKLWDPSVQSCKEGL [P2H], the protein stability index is reported as 3.75. For VIGTQVGQGGKLWDPSVQSCKEGL [P2I], the protein stability index was 3.19. Work on VKGTQVGQGGKLWDPSVQSCKEGL [P2K] yielded a protein stability index of 3.89. Work on VLGTQVGQGGKLWDPSVQSCKEGL [P2L] yielded a protein stability index of 3.89. In the case of VMGTQVGQGGKLWDPSVQSCKEGL [P2M], the protein stability index is reported as 4.26. VNGTQVGQGGKLWDPSVQSCKEGL [P2N] showed a protein stability index of 4.18. VQGTQVGQGGKLWDPSVQSCKEGL [P2Q] gave a protein stability index of 3.87. In the case of VRGTQVGQGGKLWDPSVQSCKEGL [P2R], the protein stability index is reported as 4.24. VSGTQVGQGGKLWDPSVQSCKEGL [P2S] gave a protein stability index of 3.55. With VTGTQVGQGGKLWDPSVQSCKEGL [P2T] the protein stability index was 3.86. With VVGTQVGQGGKLWDPSVQSCKEGL [P2V] the protein stability index was 4.01. Variant VWGTQVGQGGKLWDPSVQSCKEGL [P2W] has a protein stability index of 3.12. VYGTQVGQGGKLWDPSVQSCKEGL [P2Y] showed a protein stability index of 2.83. VPATQVGQGGKLWDPSVQSCKEGL [G3A] showed a protein stability index of 4.21. For VPCTQVGQGGKLWDPSVQSCKEGL [G3C], the protein stability index was 4.12. Work on VPDTQVGQGGKLWDPSVQSCKEGL [G3D] yielded a protein stability index of 4.96. In the case of VPETQVGQGGKLWDPSVQSCKEGL [G3E], the protein stability index is reported as 4.88. In the case of VPFTQVGQGGKLWDPSVQSCKEGL [G3F], the protein stability index is reported as 3.01. For VPHTQVGQGGKLWDPSVQSCKEGL [G3H], the protein stability index was 4.28. VPITQVGQGGKLWDPSVQSCKEGL [G3I] gave a protein stability index of 4.3. Work on VPKTQVGQGGKLWDPSVQSCKEGL [G3K] yielded a protein stability index of 3.77. With VPLTQVGQGGKLWDPSVQSCKEGL [G3L] the protein stability index was 4.1. VPMTQVGQGGKLWDPSVQSCKEGL [G3M] gave a protein stability index of 3.8. VPNTQVGQGGKLWDPSVQSCKEGL [G3N] showed a protein stability index of 4.3. VPPTQVGQGGKLWDPSVQSCKEGL [G3P] gave a protein stability index of 4.5. VPQTQVGQGGKLWDPSVQSCKEGL [G3Q] gave a protein stability index of 4. VPRTQVGQGGKLWDPSVQSCKEGL [G3R] showed a protein stability index of 3.35. Variant VPSTQVGQGGKLWDPSVQSCKEGL [G3S] has a protein stability index of 3.48. For VPTTQVGQGGKLWDPSVQSCKEGL [G3T], the protein stability index was 4.32. For VPVTQVGQGGKLWDPSVQSCKEGL [G3V], the protein stability index was 3.99. VPWTQVGQGGKLWDPSVQSCKEGL [G3W] showed a protein stability index of 3.77. Variant VPYTQVGQGGKLWDPSVQSCKEGL [G3Y] has a protein stability index of 4.06. Work on VPGAQVGQGGKLWDPSVQSCKEGL [T4A] yielded a protein stability index of 4.55. Variant VPGCQVGQGGKLWDPSVQSCKEGL [T4C] has a protein stability index of 4. In the case of VPGDQVGQGGKLWDPSVQSCKEGL [T4D], the protein stability index is reported as 4.85. VPGEQVGQGGKLWDPSVQSCKEGL [T4E] gave a protein stability index of 3.4. For VPGFQVGQGGKLWDPSVQSCKEGL [T4F], the protein stability index was 4.15. Work on VPGGQVGQGGKLWDPSVQSCKEGL [T4G] yielded a protein stability index of 4.26. VPGHQVGQGGKLWDPSVQSCKEGL [T4H] gave a protein stability index of 4.1. In the case of VPGIQVGQGGKLWDPSVQSCKEGL [T4I], the protein stability index is reported as 3.42. VPGKQVGQGGKLWDPSVQSCKEGL [T4K] showed a protein stability index of 3.96. With VPGLQVGQGGKLWDPSVQSCKEGL [T4L] the protein stability index was 4.38. With VPGMQVGQGGKLWDPSVQSCKEGL [T4M] the protein stability index was 3.92.
